In article PMC5590460:

Target: recombinant MUC5AC C terminus protein (human)
Experiment: SDS-PAGE under non-reducing and reducing conditions with western blot; purified recombinant protein from cell lysates and cell supernatants run reduced and non-reduced on 6% Bis-Tris acrylamide or 3%-8% Tris-Acetate gels, transferred to PVDF, probed with a His antibody

## recombinant MUC5AC C terminus protein (domain or fragment)
  stoichiometry N: 2
